Measured values taken from article PMC3733160.
Read-outs that look alike come from different tables or passages of the source. Values belong to the substance of their own block, whether it stands above or below them.

Tests used:
[1] = target: 2-CysPrx F84R variant, non-tagged (Arabidopsis thaliana); assay: SEC
[2] = target: 2-CysPrx F84R variant, non-tagged (Arabidopsis thaliana); assay: SEC; remark: listed apart in the source
[3] = target: 2-CysPrx C54S variant, non-tagged (Arabidopsis thaliana); assay: SEC
[4] = target: 2-Cysteine peroxiredoxin A (At2-CysPrx) wild type, non-tagged (Arabidopsis thaliana); assay: SEC
[5] = target: 2-Cysteine peroxiredoxin A (At2-CysPrx) wild type, non-tagged (Arabidopsis thaliana); assay: SEC; remark: listed apart in the source
[6] = target: 2-Cysteine peroxiredoxin A (At2-CysPrx) wild type, non-tagged (Arabidopsis thaliana); assay: ITC
[7] = target: 2-CysPrx C176S variant, non-tagged (Arabidopsis thaliana); assay: SEC
[8] = target: 2-CysPrx C176S variant, non-tagged (Arabidopsis thaliana); assay: ITC
[9] = target: 2-CysPrx C-terminally truncated variant ΔC (–20 aa), non-tagged (Arabidopsis thaliana); assay: SEC

- stoichiometry N [1]: 2
- stoichiometry N [2]: 2
Substance: 2-CysPrx F84R variant, non-tagged (enzyme)

- stoichiometry N [3]: 10
Substance: 2-CysPrx C54S variant, non-tagged (enzyme)

- stoichiometry N [4]: 10
- stoichiometry N [5]: 2
- CTC (critical transition concentration, oligomer to dimers) [6]: 3.73 µM
- dH (dissociation enthalpy ΔHm) [6]: 72 kcal/mol
Substance: 2-Cysteine peroxiredoxin A (At2-CysPrx) wild type, non-tagged (enzyme)

- stoichiometry N [7]: 10
- CTC (critical transition concentration, oligomer to dimers) [8]: 0.63 µM
- dH (dissociation enthalpy ΔHm) [8]: 1610 kcal/mol
Substance: 2-CysPrx C176S variant, non-tagged (enzyme)

- stoichiometry N [9]: 2
Substance: 2-CysPrx C-terminally truncated variant ΔC (–20 aa), non-tagged (enzyme)
